Data taken from PMC3483176, “Structural Insight into the Clostridium difficile Ethanolamine Utilisation Microcompartment” (PLoS ONE, 2012).

B1: CD1918, C-terminal His6 tagged (CD1918-His) (natural protein)
chain: MASANALGMIETKGLVGAIEAADAMVKAANVQLVGKEQVGGGLVTVMVRGDVGAVKAATDAGAAAAERVGELISVHVIPRPHFEVDAILPKVSAE
notes: CD1918, EutM homologue, BMC shell protein of the eut operon of Clostridium difficile 630; full length open reading frame amplified from genomic DNA (genome positions 2219567-2219854); Cloned between NcoI and XhoI of pET28b; the XhoI site probably adds Leu-Glu before the His6 tag (surmised); also called EutM; C. difficile EutM homologue; source: E. coli B834 (DE3), purified (HisTrap, Superdex S200 …)
B2: CD1908, C-terminal His6 tagged (CD1908-His) (natural protein, Clostridium difficile 630, UniProt Q187M0 1-116, looked up)
chain: MTEESKQRVIQEYVPGKQVTLAHIIANPNEDIYKKLGLVLDKKDAIGILTITPSEASIIAADVATKASNVSLGFIDRFSGSVVISGDVSSVESALNDVLEVLGNMLNFSSTKITRT
notes: CD1908, EutS homologue, BMC shell protein of the eut operon of Clostridium difficile 630; full length open reading frame amplified from genomic DNA (genome positions 2209853-2210203); Cloned between NcoI and XhoI of pET28b; also called EutS; C. difficile EutS homologue; source: E. coli B834 (DE3), purified (HisTrap, Superdex S200 size exclusion); not shown: His6, C-terminal, kept

How the values were obtained:
[1] = biological target: the molecule itself; assay: crystal structure; CD1918-His at 10 mg/ml in Milli-Q H2O, sitting drop, 200 mM Li2SO4, 100 mM phosphate/citrate buffer pH 4.2, 20% (w/v) PEG 1000; space group I 1 2 1; three chains in the asymmetric unit, hexamer by a crystallographic 2-fold axis; oligomerisation states calculated with PISA
[2] = biological target: the molecule itself; assay: crystal structure; CD1908-His at 10 mg/ml in Milli-Q H2O, sitting drop, 24% (w/v) PEG 1500, 20% (v/v) glycerol; space group H 3; two molecules in the asymmetric unit, hexamer by the crystallographic 3-fold axis; oligomerisation states calculated with PISA

Row | Protein | stoichiometry N [1] | stoichiometry N [2]
1 | B1 | 6 | –
2 | B2 | – | 6
